Measurements as given in paper PMC7185751 (Biochimica et Biophysica Acta. Proteins and Proteomics, 2014).
Read-outs that look alike come from different tables or passages of the source. One block for each compound: values may come before it. Where a SMILES comes first, the peptide text is derived from it.

Legend:
[1] = tested on: histidine-57 in α-chymotrypsin; settings: cited from earlier work
[2] = molecular target: T1, α-chymotrypsin (Bos taurus, UniProt P00766); settings: from pH 8 to 3, chymotrypsin; cited from earlier work
[3] = 13C-NMR pH titration of free inhibitor; assay type: physicochemical; settings: carboxyl group, determined by 13C-NMR
[4] = molecular target: T1, α-chymotrypsin; settings: from pH 7.2 to 3.2 or 10.2; cited from earlier work
[5] = molecular target: T2, His57 (UniProt position 57, VVTAAHCGVTT); settings: cited from earlier work
[6] = molecular target: T2, His57; assay: NMR; settings: 25 °C; hemiketal complex with the glyoxal inhibitor Z-Ala-Ala-Phe-COCHO; cited from earlier work

Compound: CC(=O)N[C@@H](CC(C)C)C(=O)N[C@H](C=O)Cc1ccccc1 [Acetyl-Leu-Phe-CHO] (Ac-Leu-Phe-aldehyde)
histidine pKa in the complex with α-chymotrypsin [1]: 6.5

Compound: O=C[C@H](Cc1ccccc1)NC(=O)c1ccccc1 [Bz-Phe-CHO]
fold increase in Ki [2]: 4 fold

pKa [3]: 3.52 ± 0.03
Compound: CC(NC(=O)OCc1ccccc1)C(=O)NC(C)C(=O)NC(Cc1ccccc1)[13C](=O)O (stereo not drawn) [ZAAF-^13COOH]

Compound: C[C@H](NC(=O)OCc1ccccc1)C(=O)N1CCC[C@H]1C(=O)N[C@@H](Cc1ccccc1)C(=O)C=O [ZAPF-COCHO]
change of hemiketal formation [4]: decreases

Compound: alpha-chymotrypsin (Bos taurus (inferred; the article only says commercial alpha-chymotrypsin from Sigma))
pKa ([5]; complex with the aldehyde inhibitor Acetyl-Leu-Phe-CHO (hemiacetal)): 6.5 | pKa ([5]; free enzyme): 6.7 | pKa [6]: > 11

Compound: chymotrypsin (activation form not specified in the quoting sentence) (Bos taurus (inferred))
pKa ([5]; negatively charged tetrahedral adduct with peptidyl boronic acid inhibitors): > 10

Compound: delta-chymotrypsin (Bos taurus (inferred))
pKa ([5]; free enzyme): 7.5
